# Data from US20090149377, “METHODS FOR REGULATION OF p53 TRANSLATION AND FUNCTION” (ST. JUDE CHILDREN'S RESEARCH HOSPITAL, published 2009).
# B1: p53 5'UTR (-191 to 2) (ssRNA)
# RNA: GGUUUUCCCCUCCCAUGUGCUCAAGACUGGCGCUAAAAGUUUUGAGCUUCUCAAAAGUCUAGAGCCACCGUCCAGGGAGCAGGUAGCUGCUGGGCUCCGGGGACACUUUGCGUUCGGGCUGGGAGCGUGCUUUCCACGACGGUGACACGCUUCCCUGGAUUGGCAGCCAGACUGCCUUCCGGGUCACUGCCAU
# Biological target: RPL26 (Homo sapiens, UniProt P61254 SEQ:1-145)
# Experiment: EMSA; supershift with anti-penta His; 1.5 mM Mg acetate, 90 mM K acetate, 30 C
binder,measurement,value
B1,binding result,binds
